Consider five substances from article PMC4231788.

For assay [1], the target named is full-length soluble trimeric gp140 immunogen from the clade C TV1 strain (HIV-1 (clade C, strain TV1)). The assay can be described thus: cryo-EM structure; unliganded gp140 in vitreous ice, 0.1 mg/ml, Tris buffer 20 mM pH 7.9, 50 mM NaCl; single particle reconstruction, ~21 Å at 0.5 FSC.
For assay [2] the target is unchanged. The assay is described as follows: cryo-EM 2D comparison of trimers; 2D comparison of gp140ΔV2TV1 with full length gp140 constructs; trimeric diameters measured.
Assay [3] addresses gp140 of clade C strain Du156.1 (HIV-1 (clade C, strain Du156.1)). Described as above.
Assay [4] addresses gp140ΔV2TV1, clade C gp140 trimer with a 30-residue truncation in the V2 loop (HIV-1 (clade C, strain TV1)). Described as above.
Assay [5] deals with gp140 of clade C strain CAP239.2.00.G3J (HIV-1 (clade C, strain CAP239.2.00.G3J)). The assay is described as above.
Assay [6] concerns the target gp140 of clade C strain CAP45.2.00.G3 (HIV-1 (clade C, strain CAP45.2.00.G3)). The assay is described as above.

For “full-length soluble trimeric gp140 immunogen from the clade C TV1 strain (natural protein)”, the stoichiometry N in assay [1] and in assay [2] was 3 throughout.

As to “gp140 of clade C strain Du156.1 (natural protein)”, in assay [3], the stoichiometry N (commonly the number of molecules, sites or subunits per partner or assembly) was determined as 3.

The substance “gp140ΔV2TV1, clade C gp140 trimer with a 30-residue truncation in the V2 loop (natural protein)” displayed a stoichiometry N in assay [4] of 3. “gp140 of clade C strain CAP239.2.00.G3J (natural protein)” registered a stoichiometry N in assay [5] of 3. In assay [6], “gp140 of clade C strain CAP45.2.00.G3 (natural protein)” returned a stoichiometry N of 3.
